The subject of data set [1] is SHEL (synthetic human elastin; recombinant human tropoelastin splice form).
Data set [2] deals with SHELδ26A (SHEL lacking the sequence of exon 26A).
Data set [3] has as its system serine protease site peptide (SPS-peptide), N-AAKAQLRAAAGLGA-C.
Data set [4] concerns GST-SHEL (glutathione S-transferase fusion of SHEL).
Sequence of GST-SHEL (glutathione S-transferase fusion of SHEL) (chain, as listed by the source): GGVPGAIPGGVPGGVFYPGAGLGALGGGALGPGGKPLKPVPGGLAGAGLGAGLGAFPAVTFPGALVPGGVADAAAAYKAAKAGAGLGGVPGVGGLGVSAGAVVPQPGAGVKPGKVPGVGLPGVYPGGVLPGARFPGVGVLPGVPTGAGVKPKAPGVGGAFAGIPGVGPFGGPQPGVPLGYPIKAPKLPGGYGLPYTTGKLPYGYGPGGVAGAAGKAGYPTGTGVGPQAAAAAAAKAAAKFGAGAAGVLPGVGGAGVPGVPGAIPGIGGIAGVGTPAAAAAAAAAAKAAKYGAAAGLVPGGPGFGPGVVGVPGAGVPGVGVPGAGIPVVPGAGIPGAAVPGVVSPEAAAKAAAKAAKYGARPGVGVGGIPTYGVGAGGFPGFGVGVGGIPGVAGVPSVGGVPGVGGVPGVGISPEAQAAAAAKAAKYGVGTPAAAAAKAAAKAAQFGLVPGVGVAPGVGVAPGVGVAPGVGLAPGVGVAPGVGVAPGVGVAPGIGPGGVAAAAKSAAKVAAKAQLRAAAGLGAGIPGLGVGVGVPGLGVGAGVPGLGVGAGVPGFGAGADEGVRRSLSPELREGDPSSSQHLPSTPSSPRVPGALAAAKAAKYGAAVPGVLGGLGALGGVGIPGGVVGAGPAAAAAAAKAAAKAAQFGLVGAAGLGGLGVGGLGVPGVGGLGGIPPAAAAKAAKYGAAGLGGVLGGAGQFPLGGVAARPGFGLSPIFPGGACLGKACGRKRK

Sequence of human plasma kallikrein (Sigma) (chain, as listed by the source): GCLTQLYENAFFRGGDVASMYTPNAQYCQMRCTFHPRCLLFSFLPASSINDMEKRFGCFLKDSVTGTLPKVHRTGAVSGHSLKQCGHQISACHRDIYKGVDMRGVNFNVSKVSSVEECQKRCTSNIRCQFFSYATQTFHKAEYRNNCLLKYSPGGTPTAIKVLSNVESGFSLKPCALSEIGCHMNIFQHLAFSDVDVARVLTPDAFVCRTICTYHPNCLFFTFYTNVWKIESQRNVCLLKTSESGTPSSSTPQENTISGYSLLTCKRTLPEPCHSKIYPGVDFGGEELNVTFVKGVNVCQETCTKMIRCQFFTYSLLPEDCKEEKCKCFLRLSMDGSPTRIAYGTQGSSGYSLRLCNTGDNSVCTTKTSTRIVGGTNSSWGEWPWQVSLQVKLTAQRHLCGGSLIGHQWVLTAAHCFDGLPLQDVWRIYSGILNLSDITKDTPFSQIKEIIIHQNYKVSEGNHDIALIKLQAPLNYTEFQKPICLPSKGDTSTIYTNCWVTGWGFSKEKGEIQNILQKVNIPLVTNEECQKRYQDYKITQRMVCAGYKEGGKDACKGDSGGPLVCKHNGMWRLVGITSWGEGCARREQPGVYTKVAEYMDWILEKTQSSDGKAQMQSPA
Sequence of SHELδ26A (SHEL lacking the sequence of exon 26A) (chain, as listed by the source mutant): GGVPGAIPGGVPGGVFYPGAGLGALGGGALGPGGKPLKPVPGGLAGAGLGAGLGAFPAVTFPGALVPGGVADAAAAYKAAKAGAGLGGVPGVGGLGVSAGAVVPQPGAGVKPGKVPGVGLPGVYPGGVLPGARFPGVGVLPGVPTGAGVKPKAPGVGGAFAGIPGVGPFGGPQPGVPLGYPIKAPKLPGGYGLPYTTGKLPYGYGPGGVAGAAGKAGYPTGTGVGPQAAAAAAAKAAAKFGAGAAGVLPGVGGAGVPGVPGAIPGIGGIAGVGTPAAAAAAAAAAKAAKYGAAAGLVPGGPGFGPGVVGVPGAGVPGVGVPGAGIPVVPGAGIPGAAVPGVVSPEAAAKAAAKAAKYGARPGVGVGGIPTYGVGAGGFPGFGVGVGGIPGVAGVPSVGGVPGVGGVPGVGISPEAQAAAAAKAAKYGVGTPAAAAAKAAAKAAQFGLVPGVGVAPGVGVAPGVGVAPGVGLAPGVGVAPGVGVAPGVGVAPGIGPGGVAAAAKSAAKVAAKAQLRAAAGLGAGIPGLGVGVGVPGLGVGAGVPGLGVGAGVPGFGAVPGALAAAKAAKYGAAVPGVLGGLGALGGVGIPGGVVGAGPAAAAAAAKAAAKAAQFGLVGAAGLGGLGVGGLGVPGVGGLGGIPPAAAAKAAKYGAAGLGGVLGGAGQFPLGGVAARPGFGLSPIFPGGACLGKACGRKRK
Sequence of SHEL (synthetic human elastin; recombinant human tropoelastin splice form) (chain, as listed by the source): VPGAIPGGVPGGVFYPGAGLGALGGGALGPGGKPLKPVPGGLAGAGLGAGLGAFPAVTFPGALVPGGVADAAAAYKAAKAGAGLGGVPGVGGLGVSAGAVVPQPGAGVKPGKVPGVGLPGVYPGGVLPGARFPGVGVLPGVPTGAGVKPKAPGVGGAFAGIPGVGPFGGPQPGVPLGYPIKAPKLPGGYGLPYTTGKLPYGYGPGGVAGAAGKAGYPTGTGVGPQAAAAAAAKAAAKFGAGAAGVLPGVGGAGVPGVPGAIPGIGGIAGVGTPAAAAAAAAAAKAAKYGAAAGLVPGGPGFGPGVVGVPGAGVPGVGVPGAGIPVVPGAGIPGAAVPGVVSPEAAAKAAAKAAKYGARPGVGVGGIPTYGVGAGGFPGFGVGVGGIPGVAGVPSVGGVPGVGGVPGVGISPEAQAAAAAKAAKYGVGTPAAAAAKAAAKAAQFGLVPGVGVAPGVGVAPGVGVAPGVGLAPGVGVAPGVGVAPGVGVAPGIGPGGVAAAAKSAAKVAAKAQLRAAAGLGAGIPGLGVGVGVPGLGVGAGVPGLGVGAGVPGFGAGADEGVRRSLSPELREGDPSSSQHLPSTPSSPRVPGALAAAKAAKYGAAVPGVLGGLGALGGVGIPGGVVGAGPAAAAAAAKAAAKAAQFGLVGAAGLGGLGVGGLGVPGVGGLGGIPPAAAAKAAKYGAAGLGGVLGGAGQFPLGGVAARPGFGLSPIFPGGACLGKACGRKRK

Take human plasma kallikrein (Sigma): the “degradation of SHEL by human plasma kallikrein, SDS-PAGE” value in data set [1] is “Three major fragments were identified by SDS-PAGE (FIG. 8) estimated to be 45, 22 and 18 kDa”. For the same substance, in data set [2], the “degradation of SHELδ26A by human plasma kallikrein, SDS-PAGE” value was “The pattern of degradation of SHELδ26A was somewhat different, with the 22 and 18 kDa fragments missing and replaced by a 15 kDa fragment”. In data set [3], the “amount of full-length SHEL after kallikrein digestion with a 100:1 molar excess of SPS-peptide, SDS-PAGE and densitometry (also seen with SHELδ26A, not shown)” value was “more full-length SHEL was evident compared with controls using trypsin, plasmin, kallikrein and serum”.
In the case of human thrombin (Sigma), in data set [1], the “degradation of SHEL by thrombin, SDS-PAGE” value was “four major fragments were identified by SDS-PAGE estimated at 45, 34, 22 and 13 kDa”. For the same substance, in data set [2], the “degradation of SHELδ26A by thrombin, SDS-PAGE” value is “The patterns of degradation seen with SHELδ26A was slightly different with the 22 kDa fragment reduced in size to about 15 kDa”. Further, in data set [3], the “amount of full-length SHEL after thrombin digestion with SPS-peptide, SDS-PAGE and densitometry” value is “SPS-peptide also resulted in more full-length SHEL using thrombin and HLE but to a lesser extent”. In addition, in data set [4], the “cleavage of GST-SHEL by thrombin, SDS-PAGE” value was “Thrombin is able to cleave GST-SHEL extensively and in a reproducible manner”.

Source of the values: patent publication US7229788.
